# Experimental data taken from US20210275641A1 (SYNTHEKINE, published 2021).
# Residue numbers refer to the chain shown, from its start. In names and notes the source's numbering stands.
# B1: hIL2 mutein REV (L18R, Q22E, Q126V) (ligand)
# chain: APTSSSTKKTQLQLEHLRLDLEMILNGINNYKNPKLTRMLTFKFYMPKKATELKHLQCLEEELKPLEEVLNLAQSKNFHLRPRDLISNINVIVLELKGSETTFMCEYADETATIVEFLNRWITFCVSIISTLT
# B2: hIL2 mutein REM (L18R, Q22E, Q126M) (ligand)
# chain: B1 chain with V126M
# B3: hIL2 mutein VEK (L18V, Q22E, Q126K) (ligand)
# chain: B1 chain with R18V, V126K
# B4: hIL2 mutein IEK (L18I, Q22E, Q126K) (ligand)
# chain: B1 chain with R18I, V126K
# B5: hIL2 mutein RER (L18R, Q22E, Q126R) (ligand)
# chain: B1 chain with V126R
# B6: hIL2 mutein REL (L18R, Q22E, Q126L) (ligand)
# chain: B1 chain with V126L
# B7: hIL2 mutein REK (L18R, Q22E, Q126K) (ligand)
# chain: B1 chain with V126K
# B8: hIL2 mutein REN (L18R, Q22E, Q126N) (ligand)
# chain: B1 chain with V126N
# B9: hIL2 mutein REE (L18R, Q22E, Q126E) (ligand)
# chain: B1 chain with V126E
# B10: hIL2 mutein EEK (L18E, Q22E, Q126K) (ligand)
# chain: B1 chain with R18E, V126K
# B11: hIL2 mutein AEK (L18A, Q22E, Q126K) (ligand)
# chain: B1 chain with R18A, V126K
# B12: hIL2 mutein REF (L18R, Q22E, Q126F) (ligand)
# chain: B1 chain with V126F
# B13: hIL2 mutein REY (L18R, Q22E, Q126Y) (ligand)
# chain: B1 chain with V126Y
# B14: hIL2 mutein RTK (L18R, Q22T, Q126K) (ligand)
# chain: B1 chain with E22T, V126K
# B15: hIL2 mutein HEK (L18H, Q22E, Q126K) (ligand)
# chain: B1 chain with R18H, V126K
# B16: RNH (ligand)
# cytokine: B1 chain with E22N, V126H
# B17: GEH (ligand)
# cytokine: B1 chain with R18G, V126H
# B18: RTH (ligand)
# cytokine: B1 chain with E22T, V126H
# B19: MEH (ligand)
# cytokine: B1 chain with R18M, V126H
# B20: AEH (ligand)
# cytokine: B1 chain with R18A, V126H
# B21: RRH (ligand)
# cytokine: B1 chain with E22R, V126H
# B22: RDH (ligand)
# cytokine: B1 chain with E22D, V126H
# B23: STK-012 (N-terminally 40 kD PEGylated des-Ala1 REK hIL2 mutein, STK-011) (ligand)
# chain: PTSSSTKKTQLQLEHLRLDLEMILNGINNYKNPKLTRMLTFKFYMPKKATELKHLQCLEEELKPLEEVLNLAQSKNFHLRPRDLISNINVIVLELKGSETTFMCEYADETATIVEFLNRWITFCKSIISTLT
# modifications: N-terminal proline conjugated to a 40 kd (20 kD x 2 arm) branched PEG moiety via a linker
# Biological target: T1, IL-2 receptor of the human CD4 positive T cell clone 3F8 (expresses CD25 and CD122) (human, UniProt P01589 22-272; P14784 27-551)
# T1 sequence 1: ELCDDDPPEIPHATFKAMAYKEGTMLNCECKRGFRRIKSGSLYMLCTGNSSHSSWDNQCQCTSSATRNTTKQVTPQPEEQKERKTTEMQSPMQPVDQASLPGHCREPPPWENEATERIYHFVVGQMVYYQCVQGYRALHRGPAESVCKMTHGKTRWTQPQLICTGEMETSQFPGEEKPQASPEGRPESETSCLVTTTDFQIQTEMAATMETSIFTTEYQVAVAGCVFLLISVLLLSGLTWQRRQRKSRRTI
# T1 sequence 2: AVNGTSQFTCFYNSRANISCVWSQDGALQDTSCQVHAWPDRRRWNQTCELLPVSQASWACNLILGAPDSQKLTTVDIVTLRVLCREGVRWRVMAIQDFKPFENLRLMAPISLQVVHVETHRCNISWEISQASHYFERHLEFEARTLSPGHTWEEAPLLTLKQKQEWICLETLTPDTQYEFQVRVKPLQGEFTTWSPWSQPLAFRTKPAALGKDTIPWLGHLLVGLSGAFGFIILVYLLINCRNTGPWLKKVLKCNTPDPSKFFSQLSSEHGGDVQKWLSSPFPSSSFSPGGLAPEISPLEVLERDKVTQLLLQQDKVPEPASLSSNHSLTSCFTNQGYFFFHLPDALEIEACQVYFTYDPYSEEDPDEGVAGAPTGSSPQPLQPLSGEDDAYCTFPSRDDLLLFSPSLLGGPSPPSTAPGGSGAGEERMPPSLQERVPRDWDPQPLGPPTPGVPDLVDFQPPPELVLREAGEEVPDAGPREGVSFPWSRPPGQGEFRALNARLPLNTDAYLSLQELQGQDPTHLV
# Assay: cell-based or functional assay
Binder,"IFNγ Production IC50 (pM), 3F8 cells [pM]","Proliferation IC50 (pM), 3F8 cells [pM]"
B1,21.2,20.8
B2,12.7,32.6
B3,4.6,15.5
B4,8.8,10
B5,13.1,13.1
B6,33.8,68.4
B7,17.7,14.2
B8,15.7,13.7
B9,18.4,33
B10,58.7,36
B11,19,13.7
B12,38.3,37.6
B13,22.1,19.3
B14,–,62.8
B15,30.4,20.9

# Biological target: T2, human high affinity trimeric IL-2 receptor (CD25/CD122/CD132) (human, UniProt P01589 22-272; P14784 27-551; P31785 23-369)
# T2 sequence 1: T1 sequence 1
# T2 sequence 2: T1 sequence 2
# T2 sequence 3: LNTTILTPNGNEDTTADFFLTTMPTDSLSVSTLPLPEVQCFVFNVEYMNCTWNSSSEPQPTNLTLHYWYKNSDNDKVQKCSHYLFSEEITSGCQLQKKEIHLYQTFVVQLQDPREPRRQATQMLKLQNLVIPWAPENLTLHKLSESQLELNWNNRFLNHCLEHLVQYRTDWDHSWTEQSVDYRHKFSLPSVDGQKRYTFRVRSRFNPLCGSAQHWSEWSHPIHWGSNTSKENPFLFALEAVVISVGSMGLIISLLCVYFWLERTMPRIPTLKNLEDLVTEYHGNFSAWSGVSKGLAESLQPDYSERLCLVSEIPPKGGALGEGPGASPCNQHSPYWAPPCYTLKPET
# Assay: cell-based or functional assay
Binder,"pSTAT5 ratio YT CD25/YT, dilution factor 2, upper table","pSTAT5 ratio YT CD25/YT, dilution factor 4, upper table","pSTAT5 ratio YT CD25/YT, dilution factor 8, upper table","pSTAT5 ratio YT CD25/YT, dilution factor 16, upper table","pSTAT5 ratio YT CD25/YT, dilution factor 32, upper table","pSTAT5 ratio YT CD25/YT, dilution factor 64, upper table","pSTAT5 ratio YT CD25/YT, dilution factor 128, upper table","pSTAT5 ratio YT CD25/YT, dilution factor 2, lower table","pSTAT5 ratio YT CD25/YT, dilution factor 4, lower table","pSTAT5 ratio YT CD25/YT, dilution factor 8, lower table"
B7,1.1,1.6,2.6,4.8,7.7,11.8,13.1,–,–,–
B16,–,–,–,–,–,–,–,2.1,2,2.6
B9,1.4,2.9,5.9,10.1,13.5,15.3,16.8,–,–,–
B17,1.5,3.5,7.2,13.2,16.2,17.5,18.8,–,–,–
B18,–,–,–,–,–,–,–,2.3,1.9,2.6
B19,0.9,1.2,1.2,1.4,1.8,2.7,4.5,–,–,–
B20,1.3,2.6,5.7,9.7,14.1,16.6,17.9,–,–,–
B21,–,–,–,–,–,–,–,2.3,2.8,3.8
B22,–,–,–,–,–,–,–,1.7,1.8,2.1

# Same assay, conditions: not given
Binder,"pSTAT5 ratio YT CD25/YT, dilution factor 16, lower table","pSTAT5 ratio YT CD25/YT, dilution factor 32, lower table","pSTAT5 ratio YT CD25/YT, dilution factor 64, lower table","pSTAT5 ratio YT CD25/YT, dilution factor 128, lower table"
B16,3.6,5.2,7.7,13
B18,3.6,5.4,9.1,14.3
B21,6.5,10.3,14.6,19
B22,2.2,2.9,4.4,7

# Biological target: T2, human high affinity trimeric IL-2 …
# Assay: cell-based or functional assay
# Remark: another data set of the same source
row,Binder,EC50 (read off the curve) [pM]
1,B23,~8
